The values that follow come from PMC4392886 (Innate immunity, 2014).

No end group written: not given here.

This assay deals with recombinant human TLR2 ectodomain (human, UniProt O60603 19-590, N-linked glycans, predominantly of the high-mannose type). Description: native gel or EMSA. (In general: Mobility shift assays separate free from complexed probe on a gel.)
Sequence of recombinant human TLR2 ectodomain (O60603 19-590): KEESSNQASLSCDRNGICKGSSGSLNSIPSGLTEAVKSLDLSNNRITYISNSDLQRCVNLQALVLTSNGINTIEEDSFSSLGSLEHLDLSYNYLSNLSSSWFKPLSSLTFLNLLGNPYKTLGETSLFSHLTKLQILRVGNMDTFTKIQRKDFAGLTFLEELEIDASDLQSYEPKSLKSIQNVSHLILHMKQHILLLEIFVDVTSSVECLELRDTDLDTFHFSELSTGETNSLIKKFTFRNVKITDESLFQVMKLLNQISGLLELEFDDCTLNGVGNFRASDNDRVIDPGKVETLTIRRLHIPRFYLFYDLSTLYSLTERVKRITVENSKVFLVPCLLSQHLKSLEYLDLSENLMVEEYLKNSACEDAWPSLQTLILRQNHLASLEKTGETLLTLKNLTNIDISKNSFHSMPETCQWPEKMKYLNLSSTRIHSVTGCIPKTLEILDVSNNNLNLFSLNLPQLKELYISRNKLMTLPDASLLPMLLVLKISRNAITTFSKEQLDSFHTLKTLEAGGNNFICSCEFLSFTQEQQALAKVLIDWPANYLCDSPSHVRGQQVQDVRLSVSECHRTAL

B1: S-(2,3-bis-palmitoyloxypropyl)-Cys-Gly-Asp-Pro-Lys-His-Pro-Lys-Ser-Phe-K-Aca-Aca-Fluorescein (peptide)
peptide: C(2,3‑bis‑palmitoyloxypropyl)GDPKHPKSFK-{Aca-Aca-Fluorescein}
Turning to B1, the binding result is “binds”.
